Experiments:
bovine serum albumin = target: T1, bovine serum albumin (bovine, UniProt P02769 25-607); experiment: ELISA on coated antigens (data not shown)
T1 construct: Irrelevant antigen in the ELISA; also called BSA

ovalbumin = target: T2, ovalbumin (UniProt P01012 2-386); experiment: ELISA on coated antigens (data not shown)
T2 construct: Irrelevant antigen in the ELISA
T2 sequence (looked up): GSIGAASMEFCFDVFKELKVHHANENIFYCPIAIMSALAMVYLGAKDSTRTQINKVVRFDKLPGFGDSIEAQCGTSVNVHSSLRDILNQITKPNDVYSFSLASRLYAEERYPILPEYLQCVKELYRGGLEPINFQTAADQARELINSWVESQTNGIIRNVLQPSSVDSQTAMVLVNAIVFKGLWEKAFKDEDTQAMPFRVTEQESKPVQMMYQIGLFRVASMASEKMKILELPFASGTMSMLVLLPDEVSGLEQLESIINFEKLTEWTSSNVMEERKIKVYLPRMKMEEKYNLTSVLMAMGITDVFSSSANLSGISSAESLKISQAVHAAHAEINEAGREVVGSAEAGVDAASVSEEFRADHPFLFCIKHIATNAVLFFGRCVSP

T1 sequence (P02769 25-607 limits assumed): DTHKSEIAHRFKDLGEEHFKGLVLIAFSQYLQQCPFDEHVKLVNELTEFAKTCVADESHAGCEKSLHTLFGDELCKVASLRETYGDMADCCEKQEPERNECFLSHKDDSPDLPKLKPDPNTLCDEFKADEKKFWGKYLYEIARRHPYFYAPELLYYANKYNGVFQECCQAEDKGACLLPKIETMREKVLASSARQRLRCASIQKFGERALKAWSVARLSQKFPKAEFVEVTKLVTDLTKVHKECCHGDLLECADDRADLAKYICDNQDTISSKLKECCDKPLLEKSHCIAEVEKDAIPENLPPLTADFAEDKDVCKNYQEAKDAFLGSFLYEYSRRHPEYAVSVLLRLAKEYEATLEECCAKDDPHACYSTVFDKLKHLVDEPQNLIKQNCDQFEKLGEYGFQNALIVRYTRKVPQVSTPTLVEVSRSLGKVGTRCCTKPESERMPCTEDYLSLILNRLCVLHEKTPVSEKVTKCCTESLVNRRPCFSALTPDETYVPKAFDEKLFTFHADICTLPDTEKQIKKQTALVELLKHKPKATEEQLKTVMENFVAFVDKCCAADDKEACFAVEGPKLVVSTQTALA

B1: recombinant B9165 Fab (Fab, V domains shown)
VH: GAEVKKPGASVKVSCKASDYTFSSYYMHWVRQAPGQGLEWMGIINPSGGSTSYAQKFQGRVTMTRDTSTNTVYMELSSLRSEDTAVYYCARDQVVVAATLSNYGMDVWGQGTTVTVSS
VL: ELTQSPGTLSLSPGERATLSCRASQSVSSSYLAWYQQKPGQAPRLLIYDASNRATGIPARFSGSGSGTDFTLTISSLEPEDFAVYYCQQGTNWGIAFGQGTRLDIKR
notes: Soluble Fab (mu Fd region plus kappa light chain) cloned from hybridoma B9165 by phage display in pComb3 and expressed in E. coli; also called cloned B9165 Fab; Fab of COU-1
Bovine serum albumin
  binding result: no binding
ovalbumin
  binding result: no binding
